Measurements as given in patent US20160151487A1 (Hoffmann-La Roche, published 2016).
Substitutions are numbered along the chain they refer to. Names and notes keep the numbering of the source.

B1: <IGF-1R> IgG1 with M252Y, S254T, T256E (antibody)
light: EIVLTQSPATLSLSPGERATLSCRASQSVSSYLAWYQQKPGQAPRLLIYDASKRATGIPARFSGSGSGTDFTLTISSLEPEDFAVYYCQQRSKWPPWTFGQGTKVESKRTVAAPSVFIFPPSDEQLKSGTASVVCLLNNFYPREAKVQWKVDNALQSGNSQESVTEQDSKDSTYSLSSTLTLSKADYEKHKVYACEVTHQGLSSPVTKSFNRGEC
heavy: QVELVESGGGVVQPGRSQRLSCAASGFTFSSYGMHWVRQAPGKGLEWVAIIWFDGSSTYYADSVRGRFTISRDNSKNTLYLQMNSLRAEDTAVYFCARELGRRYFDLWGRGTLVSVSSASTKGPSVFPLAPSSKSTSGGTAALGCLVKDYFPEPVTVSWNSGALTSGVHTFPAVLQSSGLYSLSSVVTVPSSSLGTQTYICNVNHKPSNTKVDKKVEPKSCDKTHTCPPCPAPELLGGPSVFLFPPKPKDTLYITREPEVTCVVVDVSHEDPEVKFNWYVDGVEVHNAKTKPREEQYNSTYRVVSVLTVLHQDWLNGKEYKCKVSNKALPAPIEKTISKAKGQPREPQVYTLPPSRDELTKNQVSLTCLVKGFYPSDIAVEWESNGQPENNYKTTPPVLDSDGSFFLYSKLTVDKSRWQQGNVFSCSVMHEALHNHYTQKSLSLSPG
notes: also called YTE-mutant of anti-IGF-1R antibody
B2: <IGF-1R> IgG1 knob wt, hole H310A, H433A, Y436A (antibody)
light: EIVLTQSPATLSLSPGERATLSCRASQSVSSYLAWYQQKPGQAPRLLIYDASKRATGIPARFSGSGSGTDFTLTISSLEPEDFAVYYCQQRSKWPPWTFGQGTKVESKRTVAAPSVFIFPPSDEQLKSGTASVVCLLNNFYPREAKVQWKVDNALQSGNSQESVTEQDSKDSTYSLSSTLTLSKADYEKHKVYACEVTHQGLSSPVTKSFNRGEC
heavy 1: not shown
heavy 2: QVELVESGGGVVQPGRSQRLSCAASGFTFSSYGMHWVRQAPGKGLEWVAIIWFDGSSTYYADSVRGRFTISRDNSKNTLYLQMNSLRAEDTAVYFCARELGRRYFDLWGRGTLVSVSSASTKGPSVFPLAPSSKSTSGGTAALGCLVKDYFPEPVTVSWNSGALTSGVHTFPAVLQSSGLYSLSSVVTVPSSSLGTQTYICNVNHKPSNTKVDKKVEPKSCDKTHTCPPCPAPELLGGPSVFLFPPKPKDTLMISRTPEVTCVVVDVSHEDPEVKFNWYVDGVEVHNAKTKPREEQYNSTYRVVSVLTVLAQDWLNGKEYKCKVSNKALPAPIEKTISKAKGQPREPQVCTLPPSRDELTKNQVSLSCAVKGFYPSDIAVEWESNGQPENNYKTTPPVLDSDGSFFLVSKLTVDKSRWQQGNVFSCSVMHEALANHATQKSLSLSPGK
notes: also called IGF-1R 0035; anti-IGF-1R antibody (knobs-into-holes), one chain with H310A/H433A/Y436A
B3: <IGF-1R> IgG1 knob wt, hole L251D, L314D, L432D (antibody)
light: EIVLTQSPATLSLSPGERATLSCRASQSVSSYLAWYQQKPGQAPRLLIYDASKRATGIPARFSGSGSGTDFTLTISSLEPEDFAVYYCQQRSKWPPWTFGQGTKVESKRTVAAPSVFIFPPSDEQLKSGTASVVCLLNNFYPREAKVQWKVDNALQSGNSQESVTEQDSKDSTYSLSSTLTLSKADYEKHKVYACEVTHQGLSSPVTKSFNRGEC
heavy 1: not shown
heavy 2: B2 heavy 2 with L252D, A311H, L315D, L433D, A434H, A437Y
notes: T0033 lists L234A/L235A/P329G for IGF-1R 0037; also called IGF-1R 0037; anti-IGF-1R antibody (knobs-into-holes), one chain with L251D/L314D/L432D
B4: <IGF-1R> IgG1 knob wt, hole M252Y, S254T, T256E (antibody)
light: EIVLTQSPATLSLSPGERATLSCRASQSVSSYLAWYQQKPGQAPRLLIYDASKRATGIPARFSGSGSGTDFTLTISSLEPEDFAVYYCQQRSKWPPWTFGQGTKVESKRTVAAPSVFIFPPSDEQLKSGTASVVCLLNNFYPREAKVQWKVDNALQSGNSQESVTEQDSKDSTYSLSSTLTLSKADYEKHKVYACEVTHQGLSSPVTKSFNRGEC
heavy 1: not shown
heavy 2: B2 heavy 2 with M253Y, S255T, T257E, A311H, A434H, A437Y
notes: T0033 lists L234A/L235A/P329G for IGF-1R 0036; also called IGF-1R 0036; anti-IGF-1R antibody (knobs-into-holes), one chain with M252Y/S254T/T256E
B5: <IgF-1R> IgG1 knob wt, hole I253A, H310A, H435A (antibody)
light: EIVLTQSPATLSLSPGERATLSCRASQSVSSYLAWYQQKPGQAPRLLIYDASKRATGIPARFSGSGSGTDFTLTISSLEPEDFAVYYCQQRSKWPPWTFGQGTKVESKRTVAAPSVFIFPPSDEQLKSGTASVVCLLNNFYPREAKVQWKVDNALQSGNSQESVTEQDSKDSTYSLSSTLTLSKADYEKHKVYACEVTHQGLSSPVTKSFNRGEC
heavy 1: not shown
heavy 2: B2 heavy 2 with I254A, A434H, H436A, A437Y
notes: T0033 lists L234A/L235A/P329G for IGF-1R 0034; also called IGF-1R 0034; anti-IGF-1R antibody (knobs-into-holes), one chain with I253A/H310A/H435A

Key:
[1] = biological target: T1, human neonatal Fc-receptor (FcRn), soluble extracellular domain with His-Avi Tag, co-expressed with … (human, UniProt P55899 24-297; P61769 21-119, biotinylated (Avi Tag) for the affinity column); experiment: SPR (BIAcore T100), FcRn immobilized on CM5 chip by amine coupling (400 RU), 200 nM antibody injected, PBS 0.05% Tween-20 pH 6.0, room temperature
T1 construct: SPR: amine-coupled to a CM5 chip (400 RU), pH 6.0; also called huFcRn; FcRn/beta2-microglobulin
T1 sequence (P55899 24-297 limits assumed, chain 1 of 2): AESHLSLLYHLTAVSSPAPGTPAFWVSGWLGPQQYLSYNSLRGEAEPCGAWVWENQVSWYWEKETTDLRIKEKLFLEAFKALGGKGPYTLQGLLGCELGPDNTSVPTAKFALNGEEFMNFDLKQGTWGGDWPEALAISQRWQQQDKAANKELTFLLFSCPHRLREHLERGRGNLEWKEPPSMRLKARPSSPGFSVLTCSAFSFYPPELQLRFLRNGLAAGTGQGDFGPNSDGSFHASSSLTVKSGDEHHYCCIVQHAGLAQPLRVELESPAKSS
T1 sequence (P61769 21-119 limits assumed, chain 2 of 2): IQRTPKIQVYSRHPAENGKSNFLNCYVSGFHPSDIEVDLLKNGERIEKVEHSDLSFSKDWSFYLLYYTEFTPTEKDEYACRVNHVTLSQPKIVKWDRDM
Experimental: The binding properties of wild-type antibody and the mutants to FcRn were analyzed by surface plasmon resonance (SPR) technology using a BIAcore T100 instrument (BIAcore AB, Uppsala, Sweden). […] In the current assay, the FcRn receptor was immobilized onto a BIAcore CM5-biosensor chip (GE Healthcare Bioscience, Uppsala, Sweden) via amine coupling to a level of 400 Response units (RU). The assay was carried out at room temperature with PBS, 0.05% Tween-20TM pH 6.0 (GE Healthcare Bioscience) as running and dilution buffer. 200 nM of antibody samples were injected at a flow rate of 50 μL/min at room temperature. Association time was 180 seconds, dissociation phase took 360 seconds. Regeneration of the chip surface was reached by a short injection of HBS-P, pH 8.0. Evaluation of SPR-data was performed by comparison of the biological response signal height at 180 seconds after injection and at 300 seconds after injection. The corresponding parameters are the RU max level (180 seconds after injection) and late stability (300 seconds after end of injection).

[2] = biological target: T1, human neonatal Fc-receptor (FcRn), …; experiment: FcRn affinity chromatography
Experimental: Antibody samples containing 50 to 100 μg of protein were adjusted to pH 5.5 and applied to the FcRn column using ÄKTA explorer 10 XT or Dionex Summit (Dionex, Idstein, Germany). The column with 5 cm bed height was then washed with 5-10 column volumes of equilibration buffer 20 mM MES, 150 mM NaCl, pH 5.5. […] For complete elution of modified antibodies, the pH was increased in the gradient up to pH 8.8. The experiments were carried out at room temperature. The elution profile was obtained by continuous measurement of the absorbance at 280 nm. The time taken for an analyte peak, X, to reach the detector after sample injection was called the retention time.

Row | Binder | binding result [1] | retention time on FcRn affinity column [2]
1 | B1 | binds | 
2 | B2 |  | 42.4 min
3 | B3 |  | 40.9 min
4 | B4 |  | 57.6 min
5 | B5 |  | 42 min
